Reference: the nanobody polyreactivity screen of Harvey et al. (2022)

Assay: yeast display, Sf9 membrane polyspecificity reagent, FACS + sequencing; frameworks hold sequencing errors
Summary of the method: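 After 36–48 hours of galactose induction, yeast (Saccharomyces cerevisiae BJ5465) displaying a synthetic nanobody library were stained at 4 °C for 1 hour with 10% biotinylated, detergent-solubilized Sf9 membrane reagent. Streptavidin microbeads enriched the stained cells before FACS sorting into low and high (top ~1%) gates on anti-HA and streptavidin fluorescence. Each clone's polyreactivity label reflects its gate of origin.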

Sequence	polyreactivity (PSR sort gate)
QVQLVESGRGLVQTGGSLRLSCAASGLVNAMGWYRQAPWKERELVAAISSGGSTYYADSVKGRFTISRDNAKNTVYLQMNSLKPEDTAVYYCNAVYFRHYGYGYWGQGTQVTVSS	low polyreactivity
QVQLVESGRRLVQAGGSLRLSCAASGRIFGAYARGWSRQAPGKEREMVAAITSRGGNTYYADSVKGRFTISRDNAKNTVYLQMNSLKPEDTAVYYCRYDIWVWWSGAYDYWGQGTQVTVSS	low polyreactivity
QVQLVESGTGLVQAGGSLRLSCAASGSIFAYYAMGWYRHAPGKERELVAAISSRGGNTYYADSVKGRFTISRDNAKNNVYLQMNSLKPEDTAVYYCAADYQYSYGEYDYWGHGTQVTVSS	high polyreactivity
QVQLVESGVCLVQAGGSLRLSCAASGIIISTYAMGWYRQAPGKERELVAAITWGGTRTNYADSVKGRFTISRDNAKNTVYLQMKSLKPEDTAVYYCAASYVRDSYTHGSWGQGTQVTVSS	low polyreactivity
QVQLVESGVGIVQAGGSLRLICAASGSTFTIYAMGWYRQAPGKERELVAAITWNGGSTYYADSVKGRFTISRDNAKKTVYLQMNSLKPEDTAVYYCAAKFRYQYVRVAREYYYWGQGTQVTVSS	high polyreactivity
QVQLVESGVGIVQAGGSLRLSCAASGRIFFTYAMVWYRQAPGKERELVASITGSGGSTYYADSVKGRFTISRDNAKNTVYLQMNSLKPEDTAVYYCAAALFRRQLYRKFYYWGQGTQVSVSS	low polyreactivity
QVQLVESGVGIVQAGGSLRLSCAASGRIISGYAMGWYRHAPGKERELVATISSGGGTNYADSVKGRFTISRDNAKNTVYLQMNSLKPEDTAVYYCNKAWGYWSIRGVTHRYGYWGQGTQVTVSS	high polyreactivity
QVQLVESGVGLVKAGGSLRLSCAASGSTFRGYAMGWYRQAPGKERELVAAITYISDTTNYADSVKGRFTISRDNAKNTVYLQMNSLKPDDTAVYYCNAYYDGVWRYTSQETGDHWGQGTQVTVSS	low polyreactivity
QVQLVESGVGLVKAGGSLRLTCAASGSIFDNYPMGWYIQAPGKERELVAAISGRGGSTYYADSVKGRFTISRDNAKNSVYLQMNSLKPEVTAVYYCNALVHQTYYDYEYWGQGTQVTVSS	high polyreactivity
QVQLVESGVGLVQAGGILRLSCAASGFIFCQYSMGWYRQAPWKERELVAAISSVGTTNYADSVKGSFTISRDNAKNTVYLQMNSLKPEDTAVYYCNADSLVEYWDYDYWGQGTQVTVSS	low polyreactivity
QVQLVESGVGLVQAGGSHRFICAASGIIFYSYAMGWYRQAPGKEREFVAAITNSDGSTYYADTVKRRFTISRDNAKNTVYLQMNSLKPVDTAVYMYYWGQGTQVTVSS	low polyreactivity
QVQLVESGVGLVQAGGSLLLSCAASGRTFSYNPMGSYRQAPGKERELVALISSGGSTNYADSVKGRFTISRDNAKNTVYLQMNSLKPEDTALYYCNAGSYVWEEDYWGQGTQVTVSS	high polyreactivity
QVQLVESGVGLVQAGGSLPLSCAASGRTFRYYTMGSYRQAPGKERELVAAITQSGDSTYYADSVKGRFTISRDNAKNTFYLQMNSLKPEDTAVYYCNKAWRRRGLYDYWGQGTQVTVSS	high polyreactivity
QVQLVESGVGLVQAGGSLRLICAATGYTFKRTAMRWSRQAPGKEREFVAAINIRGSSTYYADSVKGRFTISRDNPKNTVYLQMISLKPEDTAVYYCNAVTRYGYYWGEGTQVTVSS	high polyreactivity
QVQLVESGVGLVQAGGSLRLSCAASGCIFIKYAMGWSRQAPGKERELVASITISSGRTYYADSVKGRFTISRDNAKNTVYLQMISLKPEDTAVYYCAAVSLWYSAYEYWGQGTQVTVSS	high polyreactivity
QVQLVESGVGLVQAGGSLRLSCAASGFIFHRYAMGWYRQAPGKERELVAGITSSGGSTYYADSVKGRFTISRDNAKNTVYLQMNSLKPEDTAVYYCNADSWLYRFFGYDYWGQGTQVTVSS	low polyreactivity

Sequence	polyreactivity (PSR sort gate)
QVQLVESGVGLVQAGGSLRLSCAASGFIFYSYAMGWYRQAPGKERELVAAISRSGGITYYADSVKGRFTISRDNAKNTVYLQMNSLKPEDTAVYYCAKVGRGVSSIKDMDSWGQGTQVTVSS	high polyreactivity
QVQLVESGVGLVQAGGSLRLSCAASGFTFRYYAMGWYRQAPGKERELVAAIRSGGRTYYADSVKGRFTISRDNAKNTVYLQMNSLKPEDTAVYYCNAKYKYSRGYDYWGQGTQVTVSS	high polyreactivity
QVQLVESGVGLVQAGGSLRLSCAASGGIFVPYAMGWYRQAPGKEREWVARIRSGGTTNYADSVKGRFTISRDNAKNTVYLQRNSLKPEDTAVYYCAVAAGIPQRRDYYWGQGTQVTVSS	high polyreactivity
QVQLVESGVGLVQAGGSLRLSCAASGGTFPYYAMGWYRQAPGKERELVAAISRSGARTYYADSVKGRFTISRDNAKNTVYLQMNSLKPEDTAVYYCATDNTYGYDYWGQGTQVTVSS	high polyreactivity
QVQLVESGVGLVQAGGSLRLSCAASGIIFDDYAMGWYRQAPGKERELVAGINESGDSTYYADSVKGRFTISRDNAKNTVYLQMNSLKPEDTAVYYCAAQLYYWWYDYWGQGTQVTVSS	high polyreactivity
QVQLVESGVGLVQAGGSLRLSCAASGIIFRYYAMGWYRQAPGKERELVAAISSSGVSTYYADSVKGRFTISRDNAKNTVYLQMNSLKPEDTAVYYCNAVIWVRQYFSRSSSNYWGQGTQVTVSS	high polyreactivity
QVQLVESGVGLVQAGGSLRLSCAASGIIFYDYVMGWYRPAPGKEWELVAAISRSGGSTYYADSVKGRFTISRDNAKNTVYLQMNSLKPEDTAVYYCAADTVVTEMEYCGQGTQVTVSS	high polyreactivity
QVQLVESGVGLVQAGGSLRLSCAASGISFLVYAMGWYRQAPGKERELVAAISADAGGTYYADSVKGRFTISRDNAKNNVYFQMNSLKPEDTAVYYCNVDGRSDGDDYWGQGTQVTVSS	low polyreactivity
QVQLVESGVGLVQAGGSLRLSCAASGISFVGNAMGWYRQAPGKERELVASINSGGSTYYADSVKGRFTISRDNAKYTVYLQMNSLKPADTAVYYCAVEEDRYYYDDYDYWGQGTQVTVSS	low polyreactivity
QVQLVESGVGLVQAGGSLRLSCAASGITFDENTMGWYIQAPGKERELVAAITEIGGSTYYADSVKGRFTISRDNAKNTVYLQMNSLKPEDTAVYYCNADRWVVRFVDYEYWGQGTQVTVSS	low polyreactivity
QVQLVESGVGLVQAGGSLRLSCAASGITFRSYAMGWYRQAPGKERELVAAIRSGGSTSYADSVKGRFTISRDNAKNTVYLQMNSLKPEDTAVYYCAAGGYVPLPDITFWKFGYWGQGTQVTVSS	low polyreactivity
QVQLVESGVGLVQAGGSLRLSCAASGLIFYKYAMGWYRQAPGKERELVAAITRGGGSTSYADSVKGRFTISRDNAKNTVYLQMNSLKPEDTAVYYCNAAPYTRALQGEFDYWGQGTQVTVSS	high polyreactivity
QVQLVESGVGLVQAGGSLRLSCAASGLTFATNAMGWYRQAPGKERELVAAITGSGGSTNYADSVKGRFTISRDNAKNTVYLQMNSLKPEDTAVYYCAADLLWEPSRGYRGDYWGQGTQVTVSS	low polyreactivity
QVQLVESGVGLVQAGGSLRLSCAASGNIFGVYAMGWYRQAPGKERELVATITTGGSTYYADSVKGRFTISRDNAKNTVYLQMNSLKPEDSAVYYCAADVGGGNYVYYGNDYDDGYWGQGTQVTVSS	low polyreactivity
QVQLVESGVGLVQAGGSLRLSCAASGNTFTAYSMGWYRQAPGKERELVAAISSSGRTNYADSVKGRFTISRDNAKNTVYLQMNSLKPADTAVYYCAAAALRRNGVREGNYWGQGTQVTVSS	high polyreactivity
QVQLVESGVGLVQAGGSLRLSCAASGRIFGAYAIGWYRQAPRKERELVAAISGSGGRTYYADSVKGRFTISRDSEKNTVYLQMNRLKPEDTAVYYCNKGYVYGHEYWGQGTQVTVSS	high polyreactivity
